The record followed here is patent publication US20210324099A1 (Chugai, published 2021).

The target in assay [1] is T1, hIL6R (human, UniProt P08887 20-357).
T1 construct: Purified from culture supernatant of a CHO line; whole entry named; also called human interleukin 6 receptor (purified antigen from hIL6R-CHO supernatant)
T1 sequence: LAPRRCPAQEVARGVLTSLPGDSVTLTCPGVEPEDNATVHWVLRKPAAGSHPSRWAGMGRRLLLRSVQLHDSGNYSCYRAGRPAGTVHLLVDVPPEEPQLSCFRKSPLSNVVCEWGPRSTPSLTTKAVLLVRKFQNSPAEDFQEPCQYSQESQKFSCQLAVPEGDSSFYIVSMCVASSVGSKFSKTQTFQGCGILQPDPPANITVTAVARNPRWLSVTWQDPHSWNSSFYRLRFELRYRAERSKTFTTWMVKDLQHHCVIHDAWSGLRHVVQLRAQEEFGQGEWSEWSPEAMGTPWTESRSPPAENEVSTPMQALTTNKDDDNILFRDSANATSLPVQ
Nature of the assay: SPR 37C, mean; ATP 10 uM.
Protocol: (§1) Measurements were performed at a flow rate of 10 μL/min, interaction time of 1 min, dissociation time of 1 min, and single cycle kinetics at 37° C. For the buffer, 20 mM ACES, 150 mM NaCl, 2 mM MgCl₂, and 0.05% Tween20, pH 7.4 containing different concentrations (0, 1, 10, and 100 μM) of ATP was used. The accessory Biacore Evaluation Software of Biacore T200 was used for analysis, and the 1:1 Langmuir binding model was used for the fitting model.

In assay [2] the target is T1, hIL6R. Nature of the assay: SPR 37C, mean; ATP 100 uM.
Protocol: as §1
Assay [3] concerns the target T1, hIL6R. Nature of the assay: SPR 37C, mean; ATP 0 uM.
Protocol: as §1
The target in assay [4] is T1, hIL6R. Briefly: SPR 37C; ADP 100 uM.
Protocol: (§2) Affinity analysis for hIL6R in the presence of each ATP concentration of 0, 1, 10, and 100 μM was performed on Biacore T200 using the antibodies described in Table 63. Measurements were performed at a flow rate of 10 μL/min, interaction time of 1 min, dissociation time of 1 min, and single cycle kinetics at 37° C. For the buffer, 20 mM ACES, 150 mM NaCl, 2 mM MgCl₂, and 0.05% Tween20, pH 7.4 containing different concentrations (0, 1, 10, and 100 μM) of ATP was used. The accessory Biacore Evaluation Software of Biacore T200 was used for analysis, and the 1:1 Langmuir binding model was used for the fitting model.
(§3) Antibodies with a response of 10 RU or less at the time of measurement were considered unanalyzable and are designated as N.D.
For assay [5], the target named is T1, hIL6R. Briefly: SPR 37C; ADP 10 uM.
Protocol: as §2, §3
In assay [6] the target is T1, hIL6R. Briefly: SPR 37C; AMP 10 uM.
Protocol: as §2, §3
Assay [7] deals with T1, hIL6R. Nature of the assay: SPR 37C, mean; ATP 1 uM.
Protocol: as §1
Assay [8] deals with T1, hIL6R. Briefly: SPR 37C; AMP 100 uM.
The target in assay [9] is T1, hIL6R. Nature of the assay: SPR 37C; ADP 10 uM; ADP 10 uM.
Protocol: as §2, §3
Assay [10] addresses T1, hIL6R. Briefly: SPR 37C, mean; ATP 10 uM; ATP 10 uM; mean.
Protocol: as §1
The target in assay [11] is T1, hIL6R. Nature of the assay: SPR 37C, mean; ATP 100 uM; ATP 100 uM; mean.
Protocol: as §1
The target of assay [12] is T1, hIL6R. Briefly: SPR 37C, mean; ATP 1 uM; ATP 1 uM; mean.
Protocol: as §1
Assay [13] addresses T1, hIL6R. Briefly: SPR 37C; ADP 100 uM; ADP 100 uM.
Protocol: as §2, §3

B1: MRAH-G4T1/MRAL-k0 (antibody, human IgG4 S228P, kappa, V domains shown)
VH: QVQLQESGPGLVRPSQTLSLTCTVSGYSITSDHAWSWVRQPPGRGLEWIGYISYSGITTYNPSLKSRVTMLRDTSKNQFSLRLSSVTAADTAVYYCARSLARTTAMDYWGQGSLVTVSS
VL: DIQMTQSPSSLSASVGDRVTITCRASQDISSYLNWYQQKPGKAPKLLIYYTSRLHSGVPSRFSGSGSGTDFTFTISSLQPEDIATYYCQQGNTLPYTFGQGTKVEIKR
notes: Non-switch control antibody
As to B1, the Kd worked out at 17.9 nM with hIL6R [1]; 18 nM in the assay with hIL6R [2]; 17 nM in the assay with hIL6R [3]; 5.96 nM in the assay with hIL6R [4]; 5.64 nM with hIL6R [5]; 5.33 nM with hIL6R [6]. Also, the values for the Kd with hIL6R [7] and with hIL6R [8] were 18.8 nM and 5.46 nM, respectively.

B2: H0041-G4T1/L1088-lam1 (antibody, human IgG4 S228P, lambda, V domains shown)
VH: EVQLVESGGDLVKPGGGLRLSCAASGFTFSSYTMNWVRQAPGKGLEWVSSISSQSYHIYYADSVKGRFTISRDNAKNSLYLQMNSLRAEDTAVYYCARYGKLYSLNWVFDYWGQGTLVTVSS
VL: QSALTQPPSASGSPGQTVTISCTGTSTDVGDYAYVSWYQQHPGKAPKLMIYYVSKKPDGVPDRFSGSKSGNTASLTVSGLQAEDEADYFCSLRSPGPYPLFGGGTKLTVLG
Turning to B2, the dissociation constant Kd turned out to be 10300 nM with hIL6R [9]; 320 nM with hIL6R [10]; 48.3 nM with hIL6R [11]; 2380 nM in the assay with hIL6R [12]; 296 nM with hIL6R [13]; 1810 nM with hIL6R [8].
